Laboratory results: US20240132599A1
Substitutions are numbered along the chain they refer to. Several values for one entry are separate records, joined by “and”; a condition that tells them apart may be missing. Equal entries are not always repeated.

B1: ADT1-4-2/ADT3-2 (bispecific antibody)
heavy: EVQLQQSGPGLVKPSQTLSLTCAISGDSVSSKSAAWNWIRQSPSRGLEWLGRTYYRSKWSTDYAASVKSRITINPDTSKNQLSLQLNSVTPEDTAVYYCARTWVGYVDRWGQGTLVTVSSASTKGPSVFPLAPSSKSTSGGTAALGCLVKDYFPEPVTVSWNSGALTSGVHTFPAVLQSSGLYSLSSVVTVPSSSLGTQTYICNVNHKPSNTKVDKKVEPKSCDKTHTCPPCPAPELAGAPSVFLFPPKPKDTLMISRTPEVTCVVVDVSHEDPEVKFNWYVDGVEVHNAKTKPREEQYNSTYRVVSVLTVLHQDWLNGKEYKCKVSNKALPAPIEKTISKAKGQPREPQVYTLPPSRDELEEGPVSLTCLVKGFYPSDIAVEWESTYGPENNYKTTPPVLDSDGSFFLYSKLTVSYWRWYKGNVFSCSVMHEALHNHYTQKSLSLSPG
light: DIQMTQSPPALSASVGDRVTITCRASQDINDWLAWYQHKPGKAPKLLIYDASSLESGVPLRFSGSGSGTEFTLTISSLQPDDFATYYCQQKYSAPQVTFGQGTRLEIKRTVAAPSVFIFPPSDEQLKSGTASVVCLLNNFYPREAKVQWKVDNALQSGNSQESVTEQDSKDSTYSLSSTLTLSKADYEKHKVYACEVTHQGLSSPVTKSFNRGEC
B2: ADT1-4-6/ADT3-2 (bispecific antibody)
heavy: B1 heavy with V104A, V107P, R109V
VL: DIQMTQSPPALSASVGDRVTITCRASQDINDWLAWYQHKPGKAPKLLIYDASSLESGVPLRFSGSGSGTEFTLTISSLQPDDFATYYCQQKYKTPQVTFGQGTRLEIK
B3: ADT1-4-138/ADT3-2 (bispecific antibody)
heavy: B1 heavy with V104A, G105D, R109V
VL: B2 VL with L60S, K91R, K93S, P95D
B4: ADT1-4-2/ADT3-1 (bispecific antibody)
heavy: B1 heavy with L361T, E362D, E363D
light: B1 light
B5: ADT1-4/ADT3-1 (bispecific antibody, human IgG1)
heavy: B1 heavy with E1Q, V104S, R109V, L361T, E362D, E363D
light: ASDIQMTQSPPALSASVGDRVTITCRASQDINDWLAWYQHKPGKAPKLLIYDASSLESGVPSRFSGSGSGTEFTLTISSLQPDDFATYYCQQSYSTPQVTFGQGTRLEIKRTAAAPSVFIFPPSDEQLKSGTASVVCLLNNFYPREAKVQWKVDNALQSGNSQESVTEQDSKDSTYSLSSTLTLSKADYEKHKLYACEVTHQGLSSPVTKSFNRGEC
B6: ADT1-7 (parental) (antibody, IgG1, V domains shown)
VH: QVQLVESGGGLVKPGGSLRLSCAASGFTFSDYYMSWIRQAPGKGLEWVSYISSSGSTIYYADSVKGRFTISRDNAKNSLYLQMNSLRAEDTAVYYCARVDYADAFDIWGQGTLVTVSS
VL: ASDIQMTQSPSSLSASVGDRVTIACRAGQSIGTYLNWYQQKPGKAPKLLIYVASSLQSGVPSRFSGSGSGTEFTLTISSLQPEDFATYYCQQSYSTLLTFGRGTKVEIK
B7: ADT1-4 (parental) (antibody, IgG1, V domains shown)
VH: QVQLQQSGPGLVKPSQTLSLTCAISGDSVSSKSAAWNWIRQSPSRGLEWLGRTYYRSKWSTDYAASVKSRITINPDTSKNQLSLQLNSVTPEDTAVYYCARTWSGYVDVWGQGTLVTVSS
VL: ASDIQMTQSPPALSASVGDRVTITCRASQDINDWLAWYQHKPGKAPKLLIYDASSLESGVPSRFSGSGSGTEFTLTISSLQPDDFATYYCQQSYSTPQVTFGQGTRLEIK
B8: ADT1-4-19 (antibody, IgG1, V domains shown)
VH: B7 VH with Q1E, S104V, V109R
VL: B2 VL with K93S, Q96K
B9: ADT1-4-6 (antibody, IgG1, V domains shown)
VH: B7 VH with Q1E, S104A, V107P
VL: B2 VL
B10: ADT1-4-21 (antibody, IgG1, V domains shown)
VH: B7 VH with Q1E, A34V, S104A, G105D
VL: B2 VL with K93S, Q96W
B11: ADT1-4-1 (antibody, IgG1, V domains shown)
VH: B7 VH with Q1E, S104V, V107A
VL: B2 VL with K91R, K93S, Q96I
B12: ADT1-4-112 (antibody, IgG1, V domains shown)
VH: B7 VH with Q1E, S104V, V109Y
VL: B2 VL with K93S, T94Q
B13: ADT1-4-86 (antibody, IgG1, V domains shown)
VH: B7 VH with Q1E, A34V, S104L, Y106N
VL: B2 VL with K93S, T94E
B14: ADT1-4-143 (antibody, IgG1, V domains shown)
VH: B7 VH with Q1E, Q5L, S104V, V107A
VL: B2 VL with K91R, K93S, P95H, E106V
B15: ADT1-4-2 (antibody, IgG1, V domains shown)
VH: B7 VH with Q1E, S104V, V109R
VL: B2 VL with K93S, T94A
B16: ADT1-4-138 (antibody, IgG1, V domains shown)
VH: B7 VH with Q1E, S104A, G105D
VL: B2 VL with L60S, K91R, K93S, P95D
B17: ADT1-4-53 (antibody, IgG1, V domains shown)
VH: B7 VH with Q1E, A34V, S104A, G105D
VL: B2 VL with K93S, V97L
B18: ADT1-4-31 (antibody, IgG1, V domains shown)
VH: B7 VH with Q1E, S104V, V107A
VL: B2 VL with K91R, K93S, Q96P
B19: ADT1-7-20 (antibody, IgG1, V domains shown)
VH: B6 VH with Q1E, A102Q, D103E
VL: DIQMTQSPSSLSASVGDRVTIACRAGQSIGTYLNWYQQKPGKAPKLLIYVASSLQSGVPSRFSGSGSGTEFTLTISSLQPEDFATYYCQQSYSGLDTFGRGTKVEIK
B20: ADT1-7-3 (antibody, IgG1, V domains shown)
VH: B6 VH with Q1E, D100S, D103E
VL: B19 VL
B21: ADT1-7-61 (antibody, IgG1, V domains shown)
VH: B6 VH with Q1E, V99D, A102D
VL: B19 VL with Y92A, G94E, D96L

biological target: Vδ1 TCR on human Vδ1-positive γδ T cells (human), A0A1B0; experiment: not given; conditions: not given
Sequence (A0A1B0 entry or part of it mutant limits assumed): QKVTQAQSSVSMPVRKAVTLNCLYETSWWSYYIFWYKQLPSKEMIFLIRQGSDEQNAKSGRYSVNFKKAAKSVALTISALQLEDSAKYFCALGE

Binder	Vδ1 TCR down-regulation (A375 co-culture): % change (at saturation) [%]	Vδ1 TCR down-regulation (A375 co-culture): EC50 [nM]	Vδ1 TCR down-regulation (A375 co-culture): EC95 [nM]
B1	102	0.00142	0.0379
B2	81.9	0.00606	0.0836
B3	75.3	0.00798	0.496

biological target: Vδ1 TCR on human Vδ1-positive γδ T cells (human), A0A1B0; experiment: not given; conditions: not given; remark: another data set of the same source

Binder	Vδ1 TCR down-regulation (A375 co-culture): % change (at EC100 saturation) [%]	Vδ1 TCR down-regulation (A375 co-culture): EC50 [nM]
B1	96.8	0.00095

biological target: Vδ1 TCR on human Vδ1-positive γδ T cells (human), A0A1B0; experiment: not given; conditions: not given; remark: another data set of the same source

Binder	Vδ1 TCR down-regulation (A375 co-culture): EC50 (read off the curve) [nM]
B4	0.01

biological target: Vδ1 TCR on human Vδ1-positive γδ T cells (human), A0A1B0; experiment: not given; conditions: not given; remark: another data set of the same source

Binder	Vδ1 TCR down-regulation (A375 co-culture): % change (at saturation) [%]	Vδ1 TCR down-regulation (A375 co-culture): EC95 [nM]	Vδ1 TCR down-regulation (A431 co-culture): % change (at saturation) [%]	Vδ1 TCR down-regulation (A431 co-culture): EC95 [nM]
B4	46	0.101	81.1	0.0079
B5	34	5.9	80.3	0.0263

biological target: Vδ1 TCR on human Vδ1-positive γδ T cells (human), A0A1B0; experiment: not given; conditions: scale: nM

Binder	IC50 of Vδ1 TCR downregulation (% MFI of anti-Vδ1 staining after 2 h, two γδ cell donors)
B6	22.4

biological target: Vδ1 TCR on human Vδ1-positive γδ T cells (human), A0A1B0; experiment: cell-based or functional assay; conditions: not given

Binder	IC50 TCR downregulation (soluble assay, added in solution) [nM]	IC50 TCR DR (no THP-1)	IC90 TCR DR (noTHP-1)
B7	38.3	–	–
B8	–	0.37 nM and 0.367 nM	1.6 nM and 1.58 nM
B9	–	0.48 nM	1.9 nM and 1.91 nM
B10	–	0.27 nM and 0.266 nM	0.89 nM and 0.892 nM
B11	–	0.36 nM	0.67 nM
B12	–	0.3 nM and 0.295 nM	1.1 nM and 1.09 nM
B13	–	0.31 nM and 0.307 nM	1 nM
B14	–	0.31 nM and 0.313 nM	0.85 nM and 0.853 nM
B15	–	0.31 nM	0.83 nM and 0.834 nM
B16	–	8.4 nM and 8.38 nM	38 nM and 38.3 nM
B17	–	0.25 nM and 0.254 nM	0.7 nM and 0.698 nM
B18	–	0.24 nM and 0.245 nM	1.1 nM and 1.09 nM
B19	–	0.16 nM and 0.164 nM	1 nM and 1.04 nM
B20	–	0.16 nM and 0.161 nM	0.79 nM
B21	–	6.3 nM and 6.26 nM	1700 nM
